Results taken from the DeepSol protein solubility set.

Experiment: soluble on expression in E. coli; label from the status in PepcDB or PDB records

Sequence	soluble on expression in E. coli
MAAPILFWHRRDLRLSDNIGLAAARAQSAQLIGLFCLDPQILQSADMAPARVAYLQGCLQELQQRYQQAGSRLLLLQGDPQHLIPQLAQQLQAEAVYWNQDIEPYGRDRDGQVAAALKTAGIRAVQLWDQLLHSPDQILSGSGNPYSVYGPFWKNWQAQPKPTPVATPTELVDLSPEQLTAIAPLLLSELPTLKQLGFDWDGGFPVEPGETAAIARLQEFCDRAIADYDPQRNFPAEAGTSGLSPALKFGAIGIRQAWQAASAAHALSRSDEARNSIRVWQQELAWREFYQHALYHFPSLADGPYRSLWQQFPWENREALFTAWTQAQTGYPIVDAAMRQLTETGWMHNRCRMIVASFLTKDLIIDWRRGEQFFMQHLVDGDLAANNGGWQWSASSGMDPKPLRIFNPASQAKKFDATATYIKRWLPELRHVHPKDLISGEITPIERRGYPAPIVNHNLRQKQFKALYNQLKAAIAEPEAEPDS	soluble
MAAPKLGFFEKIANLTGALYRHQHAQFPRRFAILKAVGKHELAPPRQADWPAIKADWAKVQSFIQTGGYKNLSIREGLVYTAVTLEVVFWFFVGEMIGRRYIFGYLVPADYVSKSTKKTVKEQEALAALEN	not soluble
MAASLRSFLEQLKRQNSLYLVKKPVNPRFELGALLKKTKGTVPMFFQNIEGYDVPAVGGIVGTRENFAQALRINKSELLAKITEAITNPGETRLLPSGPVQENVLTKGFDIGKMFPIPTFHEKDSGAFITAGIVVAKDPIYGRRFTSIRRMQLNGPNNLSILIESPGLIEQYYEFERRGQAMEVAIVLGVHPAITLSSQLPTQTFGLDKYNVASRLIGEPLPVVKCKTIDLEVPADAEIVLEGRMLPYVRHPEGPFGELMGYYGPQTMQPVVEVTAVTFRNNPIFQVIFPSSYEHKLPNALMREVVLFNHVRHVVPTVQDVHLTMAGGGRCHAIISIKKTAEGQGKQAIFAALASNKDVKHVVVVNDDVDIFDPEDVEWAIATRVQADQDIIIIPGAQGTPLEPSHNLRGVSAKMGIDATYPLAEEERFARTQIPGYDQIRLEDYLTLDW	soluble
MAATSSTSSQSFDIELDIIGQQPPLLSIYTQISLVYPVSDPSQYPTIVSTLEEGLKRLSQTFPWVAGQVKTEGISEGNTGTSKIIPYEETPRLVVKDLRDDSSAPTIEGLRKAGFPLEMFDENVVAPRKTLAIGPGNGPNDPKPVLLLQLNFIKGGLILTVNGQHGAMDMTGQDAIIRLLSKACRNESFTEEEISAMNLDRKTVVPLLENYKVGPELDHQIAKPAPAGDAPPAPAKATWAFFSFTPKALSELKDAATKTLDASSKFVSTDDALSAFIWQSTSRVRLARLDASTPTEFCRAVDMRGPMGVSSTYPGLLQNMTYHDSTVAEIANEPLGATASRLRSELNSDRLRRRTQALATYMHGLPDKSSVSLTADANPSSSIMLSSWAKVGCWEYDFGFGLGKPESVRRPRFEPFESLMYFMPKKPDGEFTASISLRDEDMERLKADEEWTKYAKYIG	soluble
MACHELSALRIAIGELLEKEAHDLLHEREELAPVLGQRPELKRLAEAKTLPALEEALREALLHLEERAAQEPEEPYWRGLLLAVEAMEGRLKALRAEAEALYQDLDALHGRLHRLFPRRR	soluble
MADENHVRLSEVQLIQSEFGHSLEECYKLAVQYYKKEHVGKQEPVGYEDRIKLLSLSKQVQHGEISDEFDNAGWLDITGNDVNKAWRELGSLSRDEAMASFVFLVDRVCPPFKGFIADKKAIKDAELKEFAPQVTEQSAQPPSLQQVDQRLFEDQRKQIQEALNAQTFHQFSAYAQEQFPGQPEQQTTLIRQLQEQHYQQYMSQVYAQQSTTPNGAEMNPEESHQHQIRRDDDSDVSDDEAGEDLPSNPAISPASLWNRQDINEFKANIKKDGHEGIIKVGHGETVTVRVPTHENGSCLFWEFATDHYDIGFGVYFEWTVADSNQVSVHVSESDDEEDYDEALEAEQAEAGGGGGGAAGQGGPGDVEAGAMQTRRVDPNKPRQDEIIPVYRRDCHEEVYAGSHRYPGRGIYLLKFDNSYSLWRSKTLYYRVYYSK	soluble
MADLSSRVNELHDLLNQYSYEYYVEDNPSVPDSEYDKLLHELIKIEEEHPEYKTVDSPTVRVGGEAQASFNKVNHDTPMLSLGNAFNEDDLRKFDQRIREQIGNVEYMCELKIDGLAVSLKYVDGYFVQGLTRGDGTTGEDITENLKTIHAIPLKMKEPLNVEVRGEAYMPRRSFLRLNEEKEKNDEQLFANPRNAAAGSLRQLDSKLTAKRKLSVFIYSVNDFTDFNARSQSEALDELDKLGFTTNKNRARVNNIDGVLEYIEKWTSQRESLPYDIDGIVIKVNDLDQQDEMGFTQKSPRWAIAYKFPAEEHHHHHH	soluble
